One test has as its target human TNFa (human). The experiment in a line: SPR. In general terms: SPR reads the build-up and loss of mass on a sensor chip optically.
The next test deals with T1, IL-17D (human).
T1 chain: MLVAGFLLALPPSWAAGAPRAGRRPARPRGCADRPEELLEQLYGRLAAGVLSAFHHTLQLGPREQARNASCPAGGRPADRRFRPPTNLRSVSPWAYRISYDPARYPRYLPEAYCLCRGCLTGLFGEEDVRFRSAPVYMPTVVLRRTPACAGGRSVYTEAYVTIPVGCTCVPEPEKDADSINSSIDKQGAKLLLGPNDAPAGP
The experiment in a line: competition.

In the next test the target is T2, IL-17B (human).
T2 chain: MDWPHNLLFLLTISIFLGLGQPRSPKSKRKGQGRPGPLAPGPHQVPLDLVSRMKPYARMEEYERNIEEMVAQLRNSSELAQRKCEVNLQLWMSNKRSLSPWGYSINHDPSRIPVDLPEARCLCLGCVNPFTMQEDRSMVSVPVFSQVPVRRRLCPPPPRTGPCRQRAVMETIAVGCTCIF
Nature of the test: competition ELISA.

Another test has as its target T3, IL-17F (human).
T3 chain: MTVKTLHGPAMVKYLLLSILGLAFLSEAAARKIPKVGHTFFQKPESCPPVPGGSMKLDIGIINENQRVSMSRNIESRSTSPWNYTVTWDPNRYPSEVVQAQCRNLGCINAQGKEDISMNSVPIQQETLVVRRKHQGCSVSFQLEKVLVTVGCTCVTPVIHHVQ
The experiment in a line: competition ELISA. (ELISA stands for enzyme-linked immunosorbent assay.)

The target of test [1] is T4, human IL-17A (human).
T4 chain: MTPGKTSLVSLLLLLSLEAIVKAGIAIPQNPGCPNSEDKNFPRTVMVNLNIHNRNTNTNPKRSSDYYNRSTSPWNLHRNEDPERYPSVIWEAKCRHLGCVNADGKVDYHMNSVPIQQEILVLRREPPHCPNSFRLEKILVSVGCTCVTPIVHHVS
Nature of the test: SPR, direct setup.

A further test deals with T5, IL-17C (human).
T5 chain: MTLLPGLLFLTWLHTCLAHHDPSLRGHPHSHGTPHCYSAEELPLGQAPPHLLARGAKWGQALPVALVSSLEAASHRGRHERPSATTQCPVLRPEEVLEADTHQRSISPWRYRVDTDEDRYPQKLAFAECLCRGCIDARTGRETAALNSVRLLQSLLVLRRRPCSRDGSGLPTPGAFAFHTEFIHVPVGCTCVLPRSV
Nature of the test: competition ELISA.

For the next test, the target named is T6, IL-17E (human).
T6 chain: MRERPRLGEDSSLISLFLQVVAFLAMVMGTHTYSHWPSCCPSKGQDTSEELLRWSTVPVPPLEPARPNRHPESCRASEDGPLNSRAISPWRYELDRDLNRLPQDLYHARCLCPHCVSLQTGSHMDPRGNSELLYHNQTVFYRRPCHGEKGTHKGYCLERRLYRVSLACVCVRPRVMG
The experiment in a line: competition ELISA.

Test [2] has as its target T4, human IL-17A. Nature of the test: SPR, capture setup.
Test [3] deals with T4, human IL-17A. Nature of the test: SPR.

Results on six molecules are retold here after US20260217814 (published 2026).

B1: A3 TNFa arm (antibody)
chain 1: EVQLVESGGGLVQPGGSLRLSCAASGFSLSSNAMGWVRQAPGKGLEYIGIISVGGFTYYASWAKGRFTISRDNSKNTVYLQMNSLRAEDTATYFCARDRHGGDSSGAFYLWGQGTLVTVSSASTKGPSVFPLAPSSKSTSGGTAALGCLVKDYFPEPVTVSWNSGALTSGVHTFPAVLQSSGLYSLSSVVTVPSSSLGTQTYICNVNHKPSNTKVDKKVEPKSCGGGGSGGGGSDIQMTQSPSSLSASVGDRVTITCQASQTINYWLAWYQQKPGKAPKLLIYRASTLASGVPSRFSGSGSGTDFTLTISSLQPEDFATYYCQNYYYSTSRSYGFGGGTKLTVLGGGGGSGGGGSGGGGSGGGGSEVQLVESGGGLVQPGGSLRLSCAASGFSFSSDYWMCWVRQAPGKGLEWIGCIYAGDVDDTDYASWARGRFTISRDNSKNTVYLQMNSLRAEDTAVYYCARVDGFDITYFDLWGQGTLVTVSS
chain 2: DIQMTQSPSSLSASVGDRVTITCQSSESVYSNNQLSWYQQKPGQPPKLLIYDASDLASGVPSRFSGSGSGTDFTLTISSLQPEDFATYYCAGGFSSSSDTAFGGGTKLTVLGRTRTVAAPSVFIFPPSDEQLKSGTASVVCLLNNFYPREAKVQWKVDNALQSGNSQESVTEQDSKDSTYSLSSTLTLSKADYEKHKVYACEVTHQGLSSPVTKSFNRGECGGGGSGGGGSDIQMTQSPSSLSASVGDRVTINCQASESISSWLAWYQQKPGKRPKLLIYKASTLASGVPSRFSGSGSGTDYTLTISSLQPEDFATYYCQGYYLDSSVDDNVFGGGTKLTVLGGGGGSGGGGSGGGGSGGGGSEVQLVESGGGLVQPGGSLRLSCAASGIDFSTYGISWVRQAPGKGLEWIAYIYPDYGITDYASWVNGRFTISLDNAQNTVYLQMNSLRAEDTAVYYCARSGSYYSRGWGAHYFNLWGQGTLVTVSS
As for B1, the dissociation constant (Kd) – broadly, the free concentration of one partner at which half of the binding sites on the other are occupied at equilibrium, for simple one-to-one binding – with human TNFa is less than 0.0232 nM.

B2: A5 TNFa arm (antibody)
chain 1: EVQLVESGGGLVQPGGSLRLSCAASGIDFSTYGISWVRQAPGKGLEWIAYIYPDYGITDYASWVNGRFTISLDNAQNTVYLQMNSLRAEDTAVYYCARSGSYYSRGWGAHYFNLWGQGTLVTVSSASTKGPSVFPLAPSSKSTSGGTAALGCLVKDYFPEPVTVSWNSGALTSGVHTFPAVLQSSGLYSLSSVVTVPSSSLGTQTYICNVNHKPSNTKVDKKVEPKSCGGGGSGGGGSDIQMTQSPSSLSASVGDRVTITCQASQTINYWLAWYQQKPGKAPKLLIYRASTLASGVPSRFSGSGSGTDFTLTISSLQPEDFATYYCQNYYYSTSRSYGFGGGTKLTVLGGGGGSGGGGSGGGGSGGGGSEVQLVESGGGLVQPGGSLRLSCAASGFSFSSDYWMCWVRQAPGKGLEWIGCIYAGDVDDTDYASWARGRFTISRDNSKNTVYLQMNSLRAEDTAVYYCARVDGFDITYFDLWGQGTLVTVSS
chain 2: DIQMTQSPSSLSASVGDRVTINCQASESISSWLAWYQQKPGKRPKLLIYKASTLASGVPSRFSGSGSGTDYTLTISSLQPEDFATYYCQGYYLDSSVDDNVFGGGTKLTVLGRTRTVAAPSVFIFPPSDEQLKSGTASVVCLLNNFYPREAKVQWKVDNALQSGNSQESVTEQDSKDSTYSLSSTLTLSKADYEKHKVYACEVTHQGLSSPVTKSFNRGECGGGGSGGGGSDIQMTQSPSSLSASVGDRVTITCQSSESVYSNNQLSWYQQKPGQPPKLLIYDASDLASGVPSRFSGSGSGTDFTLTISSLQPEDFATYYCAGGFSSSSDTAFGGGTKLTVLGGGGGSGGGGSGGGGSGGGGSEVQLVESGGGLVQPGGSLRLSCAASGFSLSSNAMGWVRQAPGKGLEYIGIISVGGFTYYASWAKGRFTISRDNSKNTVYLQMNSLRAEDTATYFCARDRHGGDSSGAFYLWGQGTLVTVSS
B2 displayed a Kd in the test with human TNFa of 0.1 nM.

B3: PRO592 (27-31-C04-sc02) (antibody)
chain: DIQMTQSPSSLSASVGDRVTITCQASESIYRYLSWYQQKPGKAPKLLIYLASTLTSGVPSRFSGSGSGTDFTLTISSLQPEDFATYYCQSNFGTASTTYYNTFGGGTKLTVLGGGGGSGGGGSGGGGSGGGGSEVQLVESGGGLVQPGGSLTLSCAASGFSFSGFYYMCWVRQAPGKGLEWIGCIDTGDGTTYYASWAKGRFTISRDNSKNTVYLQMNSLRAEDTAVYYCARDAAYGGYAYPAHGMDLWGPGTLVTVSS
Consider B3, for which the binding result with IL-17D, in the test with IL-17B, with IL-17F, with IL-17C and in the test with IL-17E was “no binding” each time. Further, the Kd came to 0.038 nM in the test with human IL-17A [1] and 0.37 nM with human IL-17A [2].

B4: A2 (27-07-G02-sc02) (antibody)
chain: DIQMTQSPSSLSASVGDRVTITCQASQTINYWLAWYQQKPGKPPKLLIYRASTLASGVPSRFSGSGSGTDFTLTISSLQPEDFATYYCQNYYYSTSRSYGFGGGTKLTVLGGGGGSGGGGSGGGGSGGGGSEVQLVESGGGLVKPEGSLRLSCAASGFSFSSDYWMCWVRQAPGKGLEWIACIYAGDVDDTDYASWARGRFTISRDNSKNTVYLQMNSLRAEDTAVYYCARVDGFDITYFDLWGQGTLVTVSS
For B4, the binding result with IL-17D, with IL-17B, in the test with IL-17F, with IL-17C and in the test with IL-17E was “no binding” in each case. The Kd with human IL-17A [1] was found to be 0.055 nM; in the test with human IL-17A [2] it was 3 nM.

B5: A4 IL-17A arm (antibody)
chain 1: EVQLVESGGGLVQPGGSLRLSCAASGFSFSSDYWMCWVRQAPGKGLEWIGCIYAGDVDDTDYASWARGRFTISRDNSKNTVYLQMNSLRAEDTAVYYCARVDGFDITYFDLWGQGTLVTVSSASTKGPSVFPLAPSSKSTSGGTAALGCLVKDYFPEPVTVSWNSGALTSGVHTFPAVLQSSGLYSLSSVVTVPSSSLGTQTYICNVNHKPSNTKVDKKVEPKSCGGGGSGGGGSDIQMTQSPSSLSASVGDRVTITCQSSESVYSNNQLSWYQQKPGQPPKLLIYDASDLASGVPSRFSGSGSGTDFTLTISSLQPEDFATYYCAGGFSSSSDTAFGGGTKLTVLGGGGGSGGGGSGGGGSGGGGSEVQLVESGGGLVQPGGSLRLSCAASGFSLSSNAMGWVRQAPGKGLEYIGIISVGGFTYYASWAKGRFTISRDNSKNTVYLQMNSLRAEDTATYFCARDRHGGDSSGAFYLWGQGTLVTVSS
chain 2: DIQMTQSPSSLSASVGDRVTITCQASQTINYWLAWYQQKPGKAPKLLIYRASTLASGVPSRFSGSGSGTDFTLTISSLQPEDFATYYCQNYYYSTSRSYGFGGGTKLTVLGRTRTVAAPSVFIFPPSDEQLKSGTASVVCLLNNFYPREAKVQWKVDNALQSGNSQESVTEQDSKDSTYSLSSTLTLSKADYEKHKVYACEVTHQGLSSPVTKSFNRGECGGGGSGGGGSDIQMTQSPSSLSASVGDRVTINCQASESISSWLAWYQQKPGKRPKLLIYKASTLASGVPSRFSGSGSGTDYTLTISSLQPEDFATYYCQGYYLDSSVDDNVFGGGTKLTVLGGGGGSGGGGSGGGGSGGGGSEVQLVESGGGLVQPGGSLRLSCAASGIDFSTYGISWVRQAPGKGLEWIAYIYPDYGITDYASWVNGRFTISLDNAQNTVYLQMNSLRAEDTAVYYCARSGSYYSRGWGAHYFNLWGQGTLVTVSS
The molecule B5 registered a Kd with human IL-17A [3] of 0.337 nM.

B6: A4 TNFa arm (antibody)
chain 1: B5 chain 1
chain 2: B5 chain 2
As for B6, in the test with human TNFa, the Kd came to 0.257 nM.
